Key:
[1] = target: T1, Cav3.1 (Homo sapiens, UniProt O43497); test: Whole-cell patch clamp of Cav3.1 dependent LVA calcium current in HEK-293/Cav3.1 cells transiently transfected with γ subunits (Example 1); assay type: cell-based; settings: for Effect on current kinetics or voltage dependency: HEK-293/Cav3.1; for Peak current density, % of control value: HEK-293/Cav3.1, normalized to adCGI vector control, mean±S.E.M.; for Activation V 0.5 / Activation k / Deactivation tau @ −100 mV, Fast / Inactivation Tau @ −20 mV / Inactivation V 0.5 / Inactivation k / Time to peak @ −20 mV / V peak: Table 2
T1 construct: expressed in transfected cells; host or cells: HEK-293, stably transfected
T1 sequence (O43497 whole entry): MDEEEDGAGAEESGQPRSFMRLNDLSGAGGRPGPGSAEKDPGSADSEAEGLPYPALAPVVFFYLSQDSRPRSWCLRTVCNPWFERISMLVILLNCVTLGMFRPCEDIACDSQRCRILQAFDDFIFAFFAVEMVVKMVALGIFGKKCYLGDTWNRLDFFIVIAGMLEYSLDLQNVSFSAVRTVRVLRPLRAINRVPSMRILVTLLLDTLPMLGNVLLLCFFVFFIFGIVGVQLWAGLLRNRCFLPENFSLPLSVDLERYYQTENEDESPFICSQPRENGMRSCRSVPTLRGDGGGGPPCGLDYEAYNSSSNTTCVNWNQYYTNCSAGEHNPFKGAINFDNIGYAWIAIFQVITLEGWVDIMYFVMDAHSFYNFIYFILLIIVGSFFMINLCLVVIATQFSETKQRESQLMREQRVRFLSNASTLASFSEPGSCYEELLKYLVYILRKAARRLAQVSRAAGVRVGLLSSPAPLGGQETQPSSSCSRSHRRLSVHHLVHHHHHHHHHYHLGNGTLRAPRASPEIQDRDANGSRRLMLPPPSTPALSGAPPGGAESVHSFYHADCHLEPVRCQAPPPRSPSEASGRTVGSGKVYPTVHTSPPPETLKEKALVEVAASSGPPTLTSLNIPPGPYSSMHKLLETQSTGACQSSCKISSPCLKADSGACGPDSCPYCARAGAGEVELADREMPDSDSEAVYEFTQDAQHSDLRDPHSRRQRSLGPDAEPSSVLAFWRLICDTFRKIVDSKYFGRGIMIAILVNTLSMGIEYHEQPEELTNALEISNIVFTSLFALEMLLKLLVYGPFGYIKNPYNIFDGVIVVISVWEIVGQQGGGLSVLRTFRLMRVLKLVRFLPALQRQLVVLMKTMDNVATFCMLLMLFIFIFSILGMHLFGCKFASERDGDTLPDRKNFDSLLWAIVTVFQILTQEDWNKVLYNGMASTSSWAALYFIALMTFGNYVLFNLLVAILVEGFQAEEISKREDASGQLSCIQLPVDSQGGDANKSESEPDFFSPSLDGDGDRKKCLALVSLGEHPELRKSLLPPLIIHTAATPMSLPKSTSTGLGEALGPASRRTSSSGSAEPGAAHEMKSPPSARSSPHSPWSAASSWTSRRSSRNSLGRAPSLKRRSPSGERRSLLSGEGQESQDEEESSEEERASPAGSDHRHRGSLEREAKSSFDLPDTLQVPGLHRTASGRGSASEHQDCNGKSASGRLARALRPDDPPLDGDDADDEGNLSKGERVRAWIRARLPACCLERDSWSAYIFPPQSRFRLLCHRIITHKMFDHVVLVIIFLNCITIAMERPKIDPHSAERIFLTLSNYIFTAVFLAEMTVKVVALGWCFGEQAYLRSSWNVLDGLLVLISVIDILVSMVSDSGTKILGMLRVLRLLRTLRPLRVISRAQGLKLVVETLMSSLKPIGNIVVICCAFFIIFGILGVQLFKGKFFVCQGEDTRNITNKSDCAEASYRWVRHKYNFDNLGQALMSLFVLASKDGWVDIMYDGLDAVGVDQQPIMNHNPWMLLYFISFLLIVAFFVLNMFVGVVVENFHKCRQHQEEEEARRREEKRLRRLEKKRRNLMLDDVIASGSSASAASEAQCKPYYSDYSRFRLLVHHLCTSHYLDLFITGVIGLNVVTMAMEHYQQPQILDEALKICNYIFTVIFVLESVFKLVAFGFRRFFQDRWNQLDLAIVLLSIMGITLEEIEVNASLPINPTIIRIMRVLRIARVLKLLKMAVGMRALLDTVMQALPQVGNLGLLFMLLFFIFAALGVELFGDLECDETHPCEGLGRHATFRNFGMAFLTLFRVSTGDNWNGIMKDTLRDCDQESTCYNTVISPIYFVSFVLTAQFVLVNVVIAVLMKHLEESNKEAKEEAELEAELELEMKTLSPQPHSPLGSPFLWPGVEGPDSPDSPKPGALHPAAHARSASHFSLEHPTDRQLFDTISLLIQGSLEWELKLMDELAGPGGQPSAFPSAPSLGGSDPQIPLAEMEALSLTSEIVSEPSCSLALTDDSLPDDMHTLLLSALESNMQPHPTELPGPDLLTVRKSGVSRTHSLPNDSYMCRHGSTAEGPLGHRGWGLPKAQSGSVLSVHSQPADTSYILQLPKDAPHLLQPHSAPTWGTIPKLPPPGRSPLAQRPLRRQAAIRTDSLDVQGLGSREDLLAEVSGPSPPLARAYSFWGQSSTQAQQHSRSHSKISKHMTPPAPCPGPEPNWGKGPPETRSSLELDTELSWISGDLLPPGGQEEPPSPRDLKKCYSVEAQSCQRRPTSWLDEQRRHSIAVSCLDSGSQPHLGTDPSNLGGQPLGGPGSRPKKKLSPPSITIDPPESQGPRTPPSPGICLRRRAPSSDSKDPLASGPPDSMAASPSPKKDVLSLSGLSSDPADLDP
Procedure: (§1) 2.3. Transfection. Untransfected HEK-293 cells, HEK-293 cell lines stably transfected with Cav3.1, and HL-1 cells were transiently transfected with vectors containing γ subunit, GFP, and modified CFP cDNAs using Lipofectamine 2000 reagent (InVitrogen) as per the manufacturer's recommendations. HEK-293 cells were grown to 70-80% confluence before transfection. HL-1 cells were grown to 50-75% confluence before transfection.
2.4. Electrophysiology. Whole-cell calcium currents were recorded using an Axopatch-1 D patch clamp system and Clampex 8.0 software. Pipettes were fabricated from borosilicate glass and had typical resistances of 2-4 MΩ. The pipette solution contained (in mM): 130 NaCl, 10 EGTA, 2 MgCl2, 1 CaCl2, 10 HEPES, 3 Tris-ATP, and either 0.3 Li2GTP or 0.3 Tris-GTP, adjusted to pH 7.4 with NaOH and 280 mOsm with sucrose. The bath solution contained (in mM): 137 NaCl (for HEK-293 experiments) or 120 TEACl (for HL-1 experiments), 1 KCl, 1 MgCl2, 0.33 NaH2PO4, 2 CaCl2 (for HEK-293 experiments) or 5 CaCl2 (for HL-1 experiments), 10 glucose (for HL-1 experiments only), 10 HEPES, and 30 μM TTX (for HEK-293 experiments only), adjusted to pH 7.4 with NaOH (for HEK-293 experiments) or TEAOH (for HL-1 experiments) and 280 mOsm with sucrose. NaCl was used as the major salt in the pipette solution order to eliminate any outward K+ currents.
Recordings from HEK-293 cells were made 48-96 h posttransfection, at which time expression, as measured by GFP fluorescence, peaked. HL-1 cells were used for recording 24-36 h post-transfection. Current densities in HEK-293/Cav3.1 cell experiments were normalized to control for variation in current expression in the different frozen stocks of stable cell lines used. […] HL-1 experiments were performed using a single stock of cells. All HEK-293 data are from current records in which pipette and whole-cell capacitance were about 100% compensated and series resistance was compensated to >80%. Whole-cell capacitance and series resistance were not compensated for HL-1 recordings as currents were typically <100 pA. Series resistance values were typically <10 MX, and no records were used in which the voltage error (as defined by Ver=Imax×Ra) was greater than 5 mV. The holding potential of all protocols used for HEK-293 cells was −100 mV except for steady-state inactivation protocols where the holding potential was −120 mV. The holding potential for protocols used for HL-1 cells was −90 mV. Current-voltage relationships for all HEK-293 and HL-1 cells were measured using 50 ms test depolarizations. Peak current amplitudes for activation curves were determined by fitting tail currents, elicited by stepping membrane voltage from varying test potentials to −60 mV, with the Boltzman equation. Test potential steps for activation protocols were of varied durations, corresponding to the time to peak of the elicited current. Inactivation curves were determined by fitting peak amplitudes of currents, observed in a test pulse to −20 mV, following 500 ms steps to varying potentials, with the Boltzman equation. Time to peak was determined using the current-voltage protocol described above. Inactivation time constants were determined by fitting the decay phase of currents to an exponential equation and deactivation time constants were determined by fitting the decay phase of tail currents to an exponential equation. […] Currents were recorded at 40 kHz and on-line filtered at either 5 or 10 kHz. In some cases currents were off-line filtered at 1 kHz to further reduce noise. Current/voltage relationships and tail currents were recorded from HEK cells using an on-line P/−4 subtraction procedure. Calcium currents recorded from HL-1 cells were off-line leak subtracted. The average membrane capacitance of untransfected HEK-293 cells in pilot experiments was 12.5±1.4 pF (n=8). […]

[2] = test system: endogenous LVA calcium current in HL-1 cells; test: Whole-cell patch clamp of endogenous LVA calcium current in HL-1 cells transfected with γ subunits; assay type: cell-based, mouse
Procedure: HL-1 cells were a gift from Dr. William C. Claycomb and were maintained as previously reported. Briefly, HL-1 cells were grown in HL-1 medium containing Claycomb medium (JRH Biosciences) supplemented with 10% fetal bovine serum (JRH Biosciences), 0.1 mM norepinephrine (Sigma), 2 mM L-glutamine (Sigma), and 100 U/ml:100 μg/ml:250 ng/ml of penicillin/streptomycin/ amphotericin B (Life Technologies) in a humidified 5% CO2 incubator at 37° C. Cells were passed when confluent at a 1:3 dilution into flasks or plates pre-coated with a 1:80 dilution of fibronectin and 0.02% gelatin (Sigma). Cells from passages 86-108 were used for this study.
as §1
2.4. Electrophysiology. Whole-cell calcium currents were recorded using an Axopatch-1 D patch clamp system and Clampex 8.0 software. Pipettes were fabricated from borosilicate glass and had typical resistances of 2-4 MΩ. […]
Recordings from HEK-293 cells were made 48-96 h posttransfection, at which time expression, as measured by GFP fluorescence, peaked. […] Current-voltage relationships for all HEK-293 and HL-1 cells were measured using 50 ms test depolarizations. Peak current amplitudes for activation curves were determined by fitting tail currents, elicited by stepping membrane voltage from varying test potentials to −60 mV, with the Boltzman equation. […] Inactivation curves were determined by fitting peak amplitudes of currents, observed in a test pulse to −20 mV, following 500 ms steps to varying potentials, with the Boltzman equation. Time to peak was determined using the current-voltage protocol described above. […]

| Molecule | Effect on current kinetics or voltage dependency [1] | Peak current density, % of control value [1] | Activation V 0.5 [1] | Activation k [1] | Deactivation tau @ −100 mV, Fast [1] | Inactivation Tau @ −20 mV [1] | Inactivation V 0.5 [1] | Inactivation k [1] | Time to peak @ −20 mV [1] | V peak [1] | Decrease in Cav3.1 current density ([1]; co-expression with Cav3.1 in HEK-293 cells) | LVA current density [2] | Reduction of endogenous LVA current density from control ([2]; transient expression) | Effect on Cav3.1 current ([1]; HEK-293 cells) | Peak current, % of control value ([1]; doubling the amount of γ4 DNA transfected) |
| --- | --- | --- | --- | --- | --- | --- | --- | --- | --- | --- | --- | --- | --- | --- | --- |
| γ6L: rat calcium channel γ6 subunit, long isoform (AF361343), SEQ ID NO:48 (protein, listed as Rattus norvegicus) MMWSNFFMQEEDRRRTAVGRRRAQEQQNLGLTPEREGKIKLGLLVAIVGATLAVLAVGTEFWVELNTYKTNGSAVCEAAHLGLWKVCIKRLWQADVPAGRETCGPAELPGEANCTYFKFFTTGENAHIFQRTTKKEVNLAAAVIAVLGLTAMALGCLCVIMVLSKGAEFLLRLGAVCFGLSGLLLFVSLEVFRHSVRALLQGVNPETPPAPRLAYEYSWSLGCGVGAGLILLLGGVCFLLLTLPSWPWRSLCPKRGGPTA | did not alter current kinetics or voltage dependency | 51%±17% | −36.3 ± 6.2 (n = 4) mV | 12.7 ± 1.5 (n = 4) | 1.54 ± 0.48 (n = 4) ms | 18.6 ± 1.1 (n = 6) ms | −78.5 ± 2.6 (n = 6) mV | 5.4 ± 0.3 (n = 6) | 6.0 ± 0.8 (n = 5) ms | −31.1 ± 3.1 (n = 9) mV | 49% | 3.37±0.62 pA/pF | 63% |  |  |
| γ4: rat calcium channel γ4 subunit (AF361341), SEQ ID NO:47 (protein, listed as Rattus norvegicus) MVRCDRGLQMLLTTAGAFAAFSLMAIAIGTDYWLYSSAHICNGTNLTMDDGPPPRRARGDLTHSGLWRVCCIEGIYKGHCFRINHFPEDNDYDHDSSEYLLRIVRASSVFPILSTILLLLGGLCIGAGRIYSRKNNIVLSAGILFVAAGLSNIIGIIVYISSNTGDPSDKRDEDKKNHYNYGWSFYFGALSFIVAETVGVLAVNIYIEKNKELRFKTKREFLKASSSSPYSRMPSYRYRRRRSRSSSRSTEASPSRDASPVGLKITGAIPMGELSMYTLSREPLKVTTAASYSPDQDAGFLQMHDFFQQDLKEGFHVSMLNRRTTPV | did not alter current kinetics or voltage dependency | 93%±7% | −37.3 ± 0.9 (n = 8) mV | 11.8 ± 0.5 (n = 8) | 1.84 ± 0.28 (n = 8) ms | 15.8 ± 0.7 (n = 7) ms | −79.2 ± 1.5 (n = 7) mV | 6.1 ± 0.2 (n = 7) | 5.2 ± 0.5 (n = 9) ms | −30.6 ± 1.5 (n = 9) mV |  | 9.14±1.34 pA/pF |  | no significant effect | 128%±19% |

— US8022177B2, “Peptides and calcium regulation in mammalian cells” (The Board of Trustees of the University of Illinois, priority 2005, dated 2011)
